Reference: publication PMC4278676

Substrate: Nc1ncnc2c1ncn2[C@@H]1O[C@H](COP(=O)(O)OP(=O)(O)OP(=O)(O)O)[C@@H](O)[C@H]1O
Assay: purified protein
Conditions: co-substrate Co(II)Cbi^+

B1: SeCobA (Salmonella enterica subsp. enterica serovar Typhimurium str. LT2) (protein)
chain: MSDERYQQRQQKVKDRVDARVAQAQEERGIIIVFTGNGKGKTTAAFGTAARAVGHGKNVGVVQFIKGTWPNGERNLLEPHGVEFQVMATGFTWETQNREADTAACMAVWQHGKRMLADPLLDMVVLDELTYMVAYDYLPLEEVISALNARPGHQTVIITGRGCHRDILDLADTVSELRPVKHAFDAGVKAQMGIDY
  Km: 25.4 ± 9.0 µM
  kcat: 0.0067 s⁻¹
  kcat/Km: 260 M⁻¹ s⁻¹
